# In paper PMC3194004:
# Like-named read-outs stand apart in the source and are kept apart here.
# Assays:
# [1] = biological target: HIV-1 full-length wild-type capsid protein (CA), residues 1-231 (HIV-1) (UniProt P03347); assay: dynamic light scattering
# [2] = biological target: HIV-1 full-length wild-type capsid protein (CA), residues 1-231 (HIV-1) (UniProt P03347); assay: dynamic light scattering; remark: listed apart in the source
substance,measurement,setting,value
"HIV-1 full-length wild-type capsid protein (CA), residues 1-231 (from UniProt P03347 133-363) (natural protein)",stoichiometry N,[1],2
same,stoichiometry N,[2],2
